Assay results published in US20130165539A1.
Blank lines part the entries; values can stand above or below the binder they belong to. No end group written: not given here. modified Toyopearl AF‑Amino‑650M resin = not defined here

Assays:
[1] = biological target: Human polyclonal immunoglobulin G (IgG), lyophilized, Equitech-Bio, Inc. (human); assay: affinity chromatography of IgG from cMEM, yield = IgG eluted / IgG loaded; cycle 1, 0 washes with 0.5 M NaOH
[2] = biological target: Human polyclonal immunoglobulin G (IgG), lyophilized, Equitech-Bio, Inc. (human); assay: affinity chromatography of IgG from cMEM, yield = IgG eluted / IgG loaded; cycle 100, 99 washes with 0.5 M NaOH
[3] = biological target: Human polyclonal immunoglobulin G (IgG), lyophilized, Equitech-Bio, Inc. (human); assay: affinity chromatography of IgG from cMEM, yield = IgG eluted / IgG loaded; cycle 1, 0 washes with 0.1 M NaOH
[4] = biological target: Human polyclonal immunoglobulin G (IgG), lyophilized, Equitech-Bio, Inc. (human); assay: affinity chromatography of IgG from cMEM, yield = IgG eluted / IgG loaded; cycle 10, 9 washes with 1 M NaOH
[5] = biological target: Human polyclonal immunoglobulin G (IgG), lyophilized, Equitech-Bio, Inc. (human); assay: affinity chromatography of IgG from cMEM, yield = IgG eluted / IgG loaded; cycle 30, 29 washes with 1 M NaOH
[6] = biological target: Human polyclonal immunoglobulin G (IgG), lyophilized, Equitech-Bio, Inc. (human); assay: affinity chromatography of IgG from cMEM, yield = IgG eluted / IgG loaded; cycle 25, 24 washes with 0.5 M NaOH
[7] = biological target: Human polyclonal immunoglobulin G (IgG), lyophilized, Equitech-Bio, Inc. (human); assay: affinity chromatography of IgG from cMEM, yield = IgG eluted / IgG loaded; cycle 25, 24 washes with 0.1 M NaOH
[8] = biological target: Human polyclonal immunoglobulin G (IgG), lyophilized, Equitech-Bio, Inc. (human); assay: affinity chromatography of IgG from cMEM, yield = IgG eluted / IgG loaded; cycle 20, 19 washes with 1 M NaOH
[9] = biological target: Human polyclonal immunoglobulin G (IgG), lyophilized, Equitech-Bio, Inc. (human); assay: affinity chromatography of IgG from cMEM, yield = IgG eluted / IgG loaded; cycle 200, 199 washes with 0.1 M NaOH
[10] = biological target: Human polyclonal immunoglobulin G (IgG), lyophilized, Equitech-Bio, Inc. (human); assay: affinity chromatography of IgG from cMEM, yield = IgG eluted / IgG loaded; cycle 1, 0 washes with 1 M NaOH
[11] = biological target: Human polyclonal immunoglobulin G (IgG), lyophilized, Equitech-Bio, Inc. (human); assay: affinity chromatography of IgG from cMEM, yield = IgG eluted / IgG loaded; cycle 50, 49 washes with 0.5 M NaOH
[12] = biological target: Human polyclonal immunoglobulin G (IgG), lyophilized, Equitech-Bio, Inc. (human); assay: affinity chromatography of IgG from cMEM, yield = IgG eluted / IgG loaded; cycle 50, 49 washes with 1 M NaOH
[13] = biological target: Human polyclonal immunoglobulin G (IgG), lyophilized, Equitech-Bio, Inc. (human); assay: affinity chromatography of IgG from cMEM, yield = IgG eluted / IgG loaded; cycle 75, 74 washes with 0.5 M NaOH
[14] = biological target: Human polyclonal immunoglobulin G (IgG), lyophilized, Equitech-Bio, Inc. (human); assay: affinity chromatography of IgG from cMEM, yield = IgG eluted / IgG loaded; cycle 100, 99 washes with 0.1 M NaOH
[15] = biological target: Human polyclonal immunoglobulin G (IgG), lyophilized, Equitech-Bio, Inc. (human); assay: affinity chromatography of IgG from cMEM, yield = IgG eluted / IgG loaded; cycle 50, 49 washes with 0.1 M NaOH
[16] = biological target: Human polyclonal immunoglobulin G (IgG), lyophilized, Equitech-Bio, Inc. (human); assay: affinity chromatography, yield = IgG eluted / IgG loaded; cycle 4, after two 0.1 M NaOH washes
[17] = biological target: Human polyclonal immunoglobulin G (IgG), lyophilized, Equitech-Bio, Inc. (human); assay: affinity chromatography, yield = IgG eluted / IgG loaded; cycle 5, after three 0.1 M NaOH washes
[18] = biological target: Human polyclonal immunoglobulin G (IgG), lyophilized, Equitech-Bio, Inc. (human); assay: affinity chromatography, yield = IgG eluted / IgG loaded; cycle 2, after phosphoric acid regeneration, before any NaOH wash
[19] = biological target: Human polyclonal immunoglobulin G (IgG), lyophilized, Equitech-Bio, Inc. (human); assay: affinity chromatography, yield = IgG eluted / IgG loaded; cycle 3, after the first 0.1 M NaOH wash (ligand partly leached)
[20] = biological target: Human polyclonal immunoglobulin G (IgG), lyophilized, Equitech-Bio, Inc. (human); assay: affinity chromatography, IgG 10 mg/mL in cMEM loaded on 0.1 mL column, eluted with 0.2 M acetate pH 4; yield = IgG eluted / IgG loaded (Protein G HPLC); cycle 1, before any NaOH wash

IgG yield [1]: 89%
IgG yield [2]: 80%
IgG yield [3]: 91%
IgG yield [4]: 84%
IgG yield [5]: 79%
IgG yield [6]: 87%
IgG yield [7]: 90%
IgG yield [8]: 82%
IgG yield [9]: 85%
IgG yield [10]: 88%
IgG yield [11]: 85%
IgG yield [12]: 76%
IgG yield [13]: 82%
IgG yield [14]: 87%
IgG yield [15]: 88%
B1: HWRGWV (SEQ ID NO: 1) synthesized on modified Toyopearl AF-Amino-650M resin (density 0.11 meq/g) (peptide)
peptide: HWRGWVA-{modified Toyopearl AF‑Amino‑650M resin}
modifications: reading uncertain

IgG yield [16]: 21%
IgG yield [17]: 21%
IgG yield [18]: 85%
IgG yield [19]: 23%
IgG yield [20]: 85%
B2: HWRGWV-Toyopearl resin (peptide HWRGWV synthesized directly on unmodified Toyopearl AF-Amino-650M resin, peptide density 0.15 meq/g, Creosalus) (peptide)
peptide: HWRGWV-{Toyopearl AF‑Amino‑650M resin}
modifications: also: coupled partly by amide, partly by ester bonds
